Reference: patent US20210246218A1 (LYVGEN BIOPHARMA SUZHOU, published 2021)

Columns and labels:
human CD137 on cells = molecular target: T1, human CD137 on cells (human, UniProt Q07011 24-255); assay: flow cytometry, cellular CD137; human CD137
T1 construct: whole, on cells; also called CHO-human CD137; CHO cells over-expressing human CD137
Method: CHO cells over-expressing human or cynomolgus monkey CD137 and CHO parental cells were harvested by centrifugation at 1000 g for 3 minutes. The cells were resuspended in ice cold assay buffer at 2*10\hat{ }6/mL and transferred to 96-well V-bottom plate with 100 μL/well. […] The plate was mixed and incubated in the dark for 2 hours at 4° C. The cells were washed 3 times by centrifugation at 1000 g for 3 min and resuspended in ice cold assay buffer containing goat F(ab′)₂ anti-human IgG-Fc (PE), 100 μL/well. The plate was incubated in the dark for another 1 hour at 4° C. The cells were washed 2 times by centrifugation at 1000 g for 3 min and resuspended in ice cold assay buffer containing 2% PFA. The cells were then subjected to the flow cytometer immediately.
Mean fluorescence intensity (MFI) was calculated from the total cell population in the FCM experiments. Graphpad 7.0, “[Agonist] vs. response—Variable slope (four parameters)” was used to plot the binding MFI in dose response and to calculate FCM binding EC₅₀ values.

mouse CD137 on CHO cells = molecular target: T2, mouse CD137 on CHO cells (mouse, UniProt P20334 24-256); assay: flow cytometry on CHO cells over-expressing the target
T2 construct: whole, on cells; also called murine cellular CD137
Method: (§1) The cells were resuspended in ice cold assay buffer at 2*10\hat{ }6/mL and transferred to 96-well V-bottom plate with 100 μL/well. […] The plate was incubated in the dark for 2 hours at 4° C. The cells were washed 3 times by centrifugation at 1000 g for 3 min and resuspended in 100 μL ice cold assay buffer containing goat F(ab′)₂ anti-human IgG-Fc (PE) or PE goat anti-mouse IgG antibody. The plate was incubated in the dark for another 1 hour at 4° C. The cells were washed 2 times by centrifugation at 1000 g for 3 min and resuspended in ice cold assay buffer containing 2% PFA and analyzed on the flow cytometer immediately.

human LAG-3 on CHO cells = molecular target: T3, human LAG-3 on CHO cells (human, UniProt P18627 23-525); assay: as above
T3 construct: whole, on cells
T3 sequence (looked up): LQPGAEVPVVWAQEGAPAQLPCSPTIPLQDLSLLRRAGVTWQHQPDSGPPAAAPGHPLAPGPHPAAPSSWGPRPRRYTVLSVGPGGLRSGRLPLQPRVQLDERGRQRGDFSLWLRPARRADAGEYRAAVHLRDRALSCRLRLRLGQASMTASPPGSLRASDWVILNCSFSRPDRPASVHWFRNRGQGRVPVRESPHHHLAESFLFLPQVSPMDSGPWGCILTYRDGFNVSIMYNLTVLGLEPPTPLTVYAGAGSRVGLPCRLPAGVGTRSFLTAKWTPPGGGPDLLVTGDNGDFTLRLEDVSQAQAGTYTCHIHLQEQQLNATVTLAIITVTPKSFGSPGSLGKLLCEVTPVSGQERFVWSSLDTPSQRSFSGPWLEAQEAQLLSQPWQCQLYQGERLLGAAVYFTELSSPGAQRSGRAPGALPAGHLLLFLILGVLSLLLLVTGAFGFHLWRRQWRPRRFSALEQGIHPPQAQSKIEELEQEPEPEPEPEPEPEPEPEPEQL
Method: as §1

human VISTA on CHO cells = molecular target: T4, human VISTA on CHO cells (human, UniProt Q9H7M9 33-311); assay: as above
T4 construct: whole, on cells
Method: as §1

human GITR on CHO cells = molecular target: T5, human GITR on CHO cells (human, UniProt Q9Y5U5 26-241); assay: as above
T5 construct: whole, on cells
T5 sequence (looked up): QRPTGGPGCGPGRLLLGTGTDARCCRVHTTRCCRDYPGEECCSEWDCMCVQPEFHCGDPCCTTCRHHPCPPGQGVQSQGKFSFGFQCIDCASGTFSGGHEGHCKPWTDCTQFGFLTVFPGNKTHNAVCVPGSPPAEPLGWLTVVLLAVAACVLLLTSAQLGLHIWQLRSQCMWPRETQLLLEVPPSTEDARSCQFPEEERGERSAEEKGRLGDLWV
Method: as §1

human TIGIT on CHO cells = molecular target: T6, human TIGIT on CHO cells (human, UniProt Q495A1 22-244); assay: as above
T6 construct: whole, on cells
T6 sequence (looked up): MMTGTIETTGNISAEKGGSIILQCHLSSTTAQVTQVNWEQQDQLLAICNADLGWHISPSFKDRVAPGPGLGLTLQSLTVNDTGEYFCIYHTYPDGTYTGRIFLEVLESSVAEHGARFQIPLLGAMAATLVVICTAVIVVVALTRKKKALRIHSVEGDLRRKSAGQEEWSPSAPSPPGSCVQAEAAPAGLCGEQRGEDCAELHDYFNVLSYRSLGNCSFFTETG
Method: as §1

human CD20 on CHO cells = molecular target: T7, human CD20 on CHO cells (human, UniProt P11836 1-297); assay: as above
T7 construct: whole, on cells
T7 sequence (looked up): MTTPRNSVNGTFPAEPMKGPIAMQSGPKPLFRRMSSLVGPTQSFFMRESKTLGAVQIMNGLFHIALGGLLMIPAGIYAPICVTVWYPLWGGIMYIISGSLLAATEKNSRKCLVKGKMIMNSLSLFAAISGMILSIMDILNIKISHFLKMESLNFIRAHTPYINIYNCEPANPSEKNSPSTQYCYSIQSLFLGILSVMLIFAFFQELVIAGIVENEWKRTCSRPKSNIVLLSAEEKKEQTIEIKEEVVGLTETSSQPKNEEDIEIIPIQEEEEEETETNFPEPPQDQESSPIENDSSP
Method: as §1

human LTBR on CHO cells = molecular target: T8, human LTBR on CHO cells (human, UniProt P36941 31-435); assay: as above
T8 construct: whole, on cells
Method: as §1

human BTLA on CHO cells = molecular target: T9, human BTLA on CHO cells (human, UniProt Q7Z6A9 31-289); assay: as above
T9 construct: whole, on cells
Method: as §1

human PD-1 on CHO cells = molecular target: T10, human PD-1 on CHO cells (human, UniProt Q15116 25-288); assay: as above
T10 construct: whole, on cells
Method: as §1

T10 sequence (Q15116 25-288): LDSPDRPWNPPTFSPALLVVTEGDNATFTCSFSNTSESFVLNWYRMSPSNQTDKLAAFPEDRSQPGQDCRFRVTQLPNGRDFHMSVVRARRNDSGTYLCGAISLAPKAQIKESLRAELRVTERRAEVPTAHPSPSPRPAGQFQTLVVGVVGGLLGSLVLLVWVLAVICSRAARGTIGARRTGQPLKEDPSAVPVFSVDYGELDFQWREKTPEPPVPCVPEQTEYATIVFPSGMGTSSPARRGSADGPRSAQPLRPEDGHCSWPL
T1 sequence (Q07011 24-255): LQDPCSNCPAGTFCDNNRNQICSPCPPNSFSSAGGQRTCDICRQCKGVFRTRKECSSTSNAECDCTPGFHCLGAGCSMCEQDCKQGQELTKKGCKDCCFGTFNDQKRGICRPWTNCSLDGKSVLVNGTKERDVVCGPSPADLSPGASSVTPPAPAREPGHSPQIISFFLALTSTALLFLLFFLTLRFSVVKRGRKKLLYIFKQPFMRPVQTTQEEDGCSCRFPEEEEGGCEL
T8 sequence (P36941 31-435): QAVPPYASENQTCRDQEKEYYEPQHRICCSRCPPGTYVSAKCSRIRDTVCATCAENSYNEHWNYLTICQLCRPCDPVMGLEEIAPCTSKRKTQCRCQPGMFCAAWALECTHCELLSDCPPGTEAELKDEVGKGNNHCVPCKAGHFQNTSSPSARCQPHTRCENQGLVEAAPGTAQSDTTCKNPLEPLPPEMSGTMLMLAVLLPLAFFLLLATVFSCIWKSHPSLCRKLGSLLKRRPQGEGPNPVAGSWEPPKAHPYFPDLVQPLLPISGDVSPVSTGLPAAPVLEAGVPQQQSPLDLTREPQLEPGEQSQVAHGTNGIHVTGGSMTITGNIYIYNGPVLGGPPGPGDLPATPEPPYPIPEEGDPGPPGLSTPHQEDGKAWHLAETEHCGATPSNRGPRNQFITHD
T2 sequence (P20334 24-256): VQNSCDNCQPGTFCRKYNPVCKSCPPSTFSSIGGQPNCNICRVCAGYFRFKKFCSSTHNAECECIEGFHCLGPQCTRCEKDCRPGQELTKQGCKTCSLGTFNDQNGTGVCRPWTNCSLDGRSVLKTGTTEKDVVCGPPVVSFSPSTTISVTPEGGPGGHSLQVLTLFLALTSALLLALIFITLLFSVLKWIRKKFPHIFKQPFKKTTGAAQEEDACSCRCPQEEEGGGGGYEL

B1: Clone 3712-IgG1v (IgG1v/kappa) (antibody)
heavy: QVQLVQSGAEVKKPGASVKVSCKASGYTFAGFEMHWVRQAPGQGLEWMGAIDPKTGGTDYNQKFKDRVTMTRDTSISTAYMELSRLRSDDTAVYYCARDLGYFDVWGQGTLVTVSSASTKGPSVFPLAPSSKSTSGGTAALGCLVKDYFPEPVTVSWNSGALTSGVHTFPAVLQSSGLYSLSSVVTVPSSSLGTQTYICNVNHKPSNTKVDKKVEPKSCDKTHTCPPCPAPELLGPSVFLFPPKPKDTLMISRTPEVTCVVVDVEHEDPEVKFNWYVDGVEVHNAKTKPREEQYNSTYRVVSVLTVLHQDWLNGKEYKCKVSNKALPAPIEKTISKAKGQPREPQVYTLPPSREEMTKNQVSLTCLVKGFYPSDIAVEWESNGQPENNYKTTPPVLDSDGSFFLYSKLTVDKSRWQQGNVFSCSVMHEALHNHYTQKSLSLSPGK
light: DIQMTQSPSSLSASVGDRVTITCRASQDIRSNLNWYQQKPGGAVKLLIYYTSRLHSGVPSRFSGSGSGTDYTLTISSLQPEDFATYFCQQSEKLPRTFGGGTKVEIRRTVAAPSVFIFPPSDEQLKSGTASVVCLLNNFYPREAKVQWKVDNALQSGNSQESVTEQDSKDSTYSLSSTLTLSKADYEKHKVYACEVTHQGLSSPVTKSFNRGEC
notes: copies: 2 + 2
Human CD137 on cells
  EC50: ~0.3 nM
Mouse CD137 on CHO cells
  binding result: no binding
Human LAG-3 on CHO cells
  binding result: no binding
Human VISTA on CHO cells
  binding result: no binding
Human GITR on CHO cells
  binding result: no binding
Human TIGIT on CHO cells
  binding result: no binding
Human CD20 on CHO cells
  binding result: no binding
Human LTBR on CHO cells
  binding result: no binding
Human BTLA on CHO cells
  binding result: no binding
Human PD-1 on CHO cells
  binding result: no binding
